This is an account of results in article PMC6548133 (The Journal of Cell Biology, 2019).

B1: talin1 F1(ΔL), residues 84–196 Δ141–170 (F1 Δloop) (domain or fragment)
chain: KQRPLKIRMLDGTVKTIMVDDSKTVTDMLMTICARIGITNHDEYSLVRELMEEKKDELNWLDHGRTLREQGVEEHETLLLRRK
B2: human Rap1 isoform Rap1b (residues 1–167) (natural protein)
chain: MREYKLVVLGSGGVGKSALTVQFVQGIFVEKYDPTIEDSYRKQVEVDAQQCMLEILDTAGTEQFTAMRDLYMKNGQGFALVYSITAQSTFNDLQDLREQILRVKDTDDVPMILVGNKCDLEDERVVGKEQGQNLARQWNNCAFLESSAKSKINVNEIFYDLVRQINR

The target in assay [1] is B2. Description: NMR titration.
Assay [2] concerns the target murine talin1 head domain, residues 1–400 (THD) (murine, UniProt P26039 1-400). The experiment in a line: NMR titration.

Sequence of murine talin1 head domain, residues 1–400 (THD) (P26039 1-400): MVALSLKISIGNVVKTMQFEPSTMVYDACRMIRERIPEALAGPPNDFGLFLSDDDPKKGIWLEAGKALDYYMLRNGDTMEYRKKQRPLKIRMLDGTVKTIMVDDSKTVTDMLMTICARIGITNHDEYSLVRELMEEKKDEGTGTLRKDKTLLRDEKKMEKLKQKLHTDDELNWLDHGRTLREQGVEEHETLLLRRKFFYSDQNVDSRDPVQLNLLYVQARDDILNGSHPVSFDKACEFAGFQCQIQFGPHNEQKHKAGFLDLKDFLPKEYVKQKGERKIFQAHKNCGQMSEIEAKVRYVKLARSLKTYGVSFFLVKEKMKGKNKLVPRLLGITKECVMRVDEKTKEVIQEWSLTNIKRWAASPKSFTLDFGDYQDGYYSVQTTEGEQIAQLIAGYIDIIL

For the molecule B1, in assay [1], the binding result is given as “binds”.

B2: the binding result in assay [2] is on record as “binds”.
